Source: publication PMC3618968 (The Journal of neuroscience : the official journal of the …, 2013)

Biological target: mouse PCDH15 EC1+2 (wild type) (mouse, UniProt Q99PJ1 27-259)
Experiment: ITC

B1: mouse CDH23 EC1+2 (domain or fragment)
chain: QVNRLPFFTNHFFDTYLLISEDTPVGSSVTQLLARDMDNDPLVFGVSGEEASRFFAVEPDTGVVWLRQPLDRETKSEFTVEFSVSDHQGVITRKVNIQVGDVNDNAPTFHNQPYSVRIPENTPVGTPIFIVNATDPDLGAGGSVLYSFQPPSPFFAIDSARGIVTVIQELDYEVTQAYQLTVNATDQDKTRPLSTLANLAIIITD
  binding result: binds
